Test results taken from patent US20220251228A1 (SHANGHAI HANSOH BIOMEDICAL, published 2022).
Changes are numbered by the printed parent chain.

T1: human BCMA on NCI-H929 tumor cells (human, UniProt Q02223 1-184)
T1 sequence (looked up): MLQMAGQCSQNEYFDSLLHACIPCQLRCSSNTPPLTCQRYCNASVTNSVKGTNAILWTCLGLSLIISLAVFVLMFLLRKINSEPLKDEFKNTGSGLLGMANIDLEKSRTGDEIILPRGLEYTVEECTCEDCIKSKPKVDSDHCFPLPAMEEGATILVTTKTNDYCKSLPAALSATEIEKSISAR

B1: humanized anti-BCMA antibody Ab2 (antibody, human IgG1, kappa, V domains shown)
VH: QVQLVQSGAEVKKPGASVKVSCKASGYSFSDYEMHWVRQAPGQGLEWIGGIHPGSGGSAYNQKFKGRVTLTVDKSTSTAYMELSSLRSEDTAVYYCTRLDYGYSWAWFPYWGQGTLVTVSA
VL: EIVLTQSPATLSLSPGERATLSCSASSSVIYMNWYQQKPGQSPKIWIYGISNLASGVPARFSGSGSGTDFTLTISSLEPEDFAVYYCQQRSSYPLTFGGGTKVEIKR
B2: humanized anti-BCMA antibody Ab1 (antibody, human IgG1, kappa, V domains shown)
VH: B1 VH with I48M, L70M, V72R, K74T, A79V
VL: B1 VL with S42A, K44R, I45L, W46L, V57I
B3: humanized anti-BCMA antibody Ab3 (antibody, human IgG1, kappa, V domains shown)
VH: B1 VH with R67K, V68A
VL: B1 VL with V3L, S22T, Q41S, D69S

Biological target: T1, human BCMA on NCI-H929 tumor cells
Assay: cell-based or functional assay

Binder	Endocytosis efficiency % (0.5 hour) [%]	Endocytosis efficiency % (2 hours) [%]
B1	36.7	48
B2	36.6	49.5
B3	35.5	45.7
